According to article PMC6940986, “Structural Insights into the Intracellular Region of the Human Magnesium Transport Mediator CNNM4” (International Journal of Molecular Sciences, 2019):

B1: CNNM4_(BAT-cNMP-Ctail) (complete intracellular region of human CNNM4, residues 356-775) [human] / itself (parent)
chain: KEELNMIQGALELRTKTVEDIMTQLQDCFMIRSDAILDFNTMSEIMESGYTRIPVFEDEQSNIVDILYVKDLAFVDPDDCTPLKTITRFYNHPVHFVFHDTKLDAMLEEFKKGKSHLAIVQKVNNEGEGDPFYEVLGLVTLEDVIEEIIKSEILDESDMYTDNRSRKRVSEKNKRDFSAFKDADNELKVKISPQLLLAAHRFLATEVSQFSPSLISEKILLRLLKYPDVIQELKFDEHNKYYARHYLYTRNKPADYFILILQGKVEVEAGKENMKFETGAFSYYGTMALTSVPSDRSPAHPTPLSRSASLSYPDRTDVSTAATLAGSSNQFGSSVLGQYISDFSVRALVDLQYIKITRQQYQNGLLASRMENSPQFPIDGCTTHMENLAEKSELPVVDETTTLLNERNSLLHKASHENAI
B2: CNNM4_(cNMP) (human CNNM4 cyclic nucleotide monophosphate binding-like domain, residues 545-730) [modified: SeMet labeled in the crystals; SeMet labeled in the crystals] [human] / itself (parent)
chain: KISPQLLLAAHRFLATEVSQFSPSLISEKILLRLLKYPDVIQELKFDEHNKYYARHYLYTRNKPADYFILILQGKVEVEAGKENMKFETGAFSYYGTMALTSVPSDRSPAHPTPLSRSASLSYPDRTDVSTAATLAGSSNQFGSSVLGQYISDFSVRALVDLQYIKITRQQYQNGLLASRMENSPQ

Legend:
itself [1] = variants of: B1; assay: SEC-MALS; settings: with itself, monomer MW = 47,861.17 Da
itself [2] = variants of: B2; assay: SEC-MALS; settings: with itself, monomer Mw = 20936.78 Da

Variant	screen value (itself [1]; 1 mg/mL (dotted lines)) [Da]	screen value (itself [1]; 10 mg/mL (solid lines)) [Da]	screen value (itself [2]; 1 mg/mL (dotted lines)) [Da]	screen value (itself [2]; 10 mg/mL (solid lines)) [Da]
chain 1 F276A	49200	60900		
chain 1 F87A			21700	26400
